{
  "source": "patent US20170334954A1",
  "key": {"[1]": {"molecular_target": "human polyclonal IgG (Gammanorm) (human)", "assay": "column 10% breakthrough capacity, ligand on agarose beads, ligand content 9.7 mg/ml; after six 4 h cycles in 1.0 M NaOH"}, "[2]": {"molecular_target": "human polyclonal IgG (Gammanorm) (human)", "assay": "column 10% breakthrough capacity, ligand on agarose beads, ligand content 9.7 mg/ml, 6 min residence time; before NaOH"}, "[3]": {"molecular_target": "human polyclonal IgG (Gammanorm) (human)", "assay": "column 10% breakthrough capacity, ligand on agarose beads, ligand content 9.7 mg/ml; after 24 h in 0.5 M NaOH"}, "[4]": {"molecular_target": "human polyclonal IgG (Gammanorm) (human)", "assay": "column 10% breakthrough capacity, ligand content 9.7 mg/ml; 1.0 M NaOH; ratio to reference Zvar4"}, "[5]": {"molecular_target": "human polyclonal IgG (Gammanorm) (human)", "assay": "column 10% breakthrough capacity, ligand content 9.7 mg/ml; 0.5 M NaOH; ratio to reference Zvar4"}, "[6]": {"molecular_target": "human polyclonal IgG (Gammanorm) (human)", "assay": "column 10% breakthrough capacity, ligand on agarose beads, ligand content 9.7 mg/ml, 6 min residence time; before NaOH", "remark": "listed apart in the source"}, "[7]": {"molecular_target": "human polyclonal IgG (Gammanorm) (human)", "assay": "column 10% breakthrough capacity, ligand on agarose beads, ligand content 7.0 mg/ml, 6 min residence time; before NaOH"}, "[8]": {"molecular_target": "human polyclonal IgG (Gammanorm) (human)", "assay": "column 10% breakthrough capacity, ligand on agarose beads, ligand content […], 6 min residence time; before NaOH"}, "[9]": {"molecular_target": "human polyclonal IgG (Gammanorm) (human)", "assay": "column 10% breakthrough capacity, ligand content 7.0 mg/ml; 0.5 M NaOH; ratio to reference Zvar4"}, "[10]": {"molecular_target": "human polyclonal IgG (Gammanorm) (human)", "assay": "column 10% breakthrough capacity, ligand content […]; 0.5 M NaOH; ratio to reference Zvar4"}, "[11]": {"molecular_target": "human polyclonal IgG (Gammanorm) (human)", "assay": "column 10% breakthrough capacity, ligand on agarose beads, ligand content […]; after 24 h in 0.5 M NaOH"}, "[12]": {"molecular_target": "human polyclonal IgG (Gammanorm) (human)", "assay": "column 10% breakthrough capacity, ligand on agarose beads, ligand content 7.0 mg/ml; after 24 h in 0.5 M NaOH"}, "[13]": {"molecular_target": "human polyclonal IgG (Gammanorm) (human)", "assay": "column 10% breakthrough capacity, ligand content 7.2 mg/ml; 0.5 M NaOH; ratio to reference Zvar4"}, "[14]": {"molecular_target": "human polyclonal IgG (Gammanorm) (human)", "assay": "column 10% breakthrough capacity, ligand on agarose beads, ligand content […], 6 min residence time; before NaOH", "remark": "listed apart in the source"}, "[15]": {"molecular_target": "human polyclonal IgG (Gammanorm) (human)", "assay": "column 10% breakthrough capacity, ligand on agarose beads, ligand content […]; after six 4 h cycles in 1.0 M NaOH"}, "[16]": {"molecular_target": "human polyclonal IgG (Gammanorm) (human)", "assay": "column 10% breakthrough capacity, ligand content […]; 1.0 M NaOH; ratio to reference Zvar4"}, "[17]": {"molecular_target": "human polyclonal IgG (Gammanorm) (human)", "assay": "column 10% breakthrough capacity, ligand on agarose beads, ligand content 7.2 mg/ml, 6 min residence time; before NaOH"}, "[18]": {"molecular_target": "human polyclonal IgG (Gammanorm) (human)", "assay": "column 10% breakthrough capacity, ligand on agarose beads, ligand content 7.2 mg/ml; after 24 h in 0.5 M NaOH"}, "[19]": {"molecular_target": "human polyclonal IgG (Gammanorm) (human)", "assay": "column 10% breakthrough capacity, ligand on agarose beads, ligand content 10.8 mg/ml; after 24 h in 0.5 M NaOH"}, "[20]": {"molecular_target": "human polyclonal IgG (Gammanorm) (human)", "assay": "column 10% breakthrough capacity, ligand content 10.8 mg/ml; 0.5 M NaOH; ratio to reference Zvar4"}, "[21]": {"molecular_target": "human polyclonal IgG (Gammanorm) (human)", "assay": "column 10% breakthrough capacity, ligand on agarose beads, ligand content 10.8 mg/ml, 6 min residence time; before NaOH"}},
  "data": [
    {"substance": "Zvar(N11K, H18K, S33K, D37E, A42R, N43A, L44I, K50R, L51Y)4 with an additional N-terminal cysteine (agarose bead ligand) (designed binder)", "values": [
      {"measurement": "Remaining IgG capacity Qb10 after six 4 h cycles", "setting": "[1]", "result": 48.1, "unit": "mg/mL"},
      {"measurement": "Remaining IgG capacity after six 4 h cycles (%)", "setting": "[1]", "result": 77, "unit": "%"},
      {"measurement": "Initial IgG capacity Qb10", "setting": "[2]", "result": 56.3, "unit": "mg/mL"},
      {"measurement": "Remaining IgG capacity Qb10 after six 4 h cycles", "setting": "[3]", "result": 52, "unit": "mg/mL"},
      {"measurement": "Remaining IgG capacity after six 4 h cycles (%)", "setting": "[3]", "result": 92, "unit": "%"},
      {"measurement": "Capacity retention relative to ref. after six 4 h cycles", "setting": "[4]", "result": 1.44},
      {"measurement": "Capacity retention relative to ref. after six 4 h cycles", "setting": "[5]", "result": 1.53},
      {"measurement": "Initial IgG capacity Qb10", "setting": "[6]", "result": 62.1, "unit": "mg/mL"}
    ]},
    {"substance": "Zvar(Q9A, N11E, N28A, N43A)4 with an additional N-terminal cysteine (agarose bead ligand) (designed binder)", "values": [
      {"measurement": "Initial IgG capacity Qb10", "setting": "[7]", "result": 49.1, "unit": "mg/mL"},
      {"measurement": "Initial IgG capacity Qb10", "setting": "[8]", "result": 50, "unit": "mg/mL"},
      {"measurement": "Capacity retention relative to ref. after six 4 h cycles", "setting": "[9]", "result": 1.5},
      {"measurement": "Capacity retention relative to ref. after six 4 h cycles", "setting": "[10]", "result": 1.31},
      {"measurement": "Remaining IgG capacity Qb10 after six 4 h cycles", "setting": "[11]", "result": 46.2, "unit": "mg/mL"},
      {"measurement": "Remaining IgG capacity after six 4 h cycles (%)", "setting": "[11]", "result": 93, "unit": "%"},
      {"measurement": "Remaining IgG capacity Qb10 after six 4 h cycles", "setting": "[12]", "result": 44.1, "unit": "mg/mL"},
      {"measurement": "Remaining IgG capacity after six 4 h cycles (%)", "setting": "[12]", "result": 90, "unit": "%"}
    ]},
    {"substance": "Zvar(Q9A, N11E, Q40V, A42K, N43A, L44I)4 with an additional N-terminal cysteine (agarose bead ligand) (designed binder)", "values": [
      {"measurement": "Initial IgG capacity Qb10", "setting": "[8]", "result": 56.3, "unit": "mg/mL"},
      {"measurement": "Capacity retention relative to ref. after six 4 h cycles", "setting": "[10]", "result": 1.34},
      {"measurement": "Remaining IgG capacity Qb10 after six 4 h cycles", "setting": "[11]", "result": 53.6, "unit": "mg/mL"},
      {"measurement": "Remaining IgG capacity after six 4 h cycles (%)", "setting": "[11]", "result": 95, "unit": "%"},
      {"measurement": "Capacity retention relative to ref. after six 4 h cycles", "setting": "[13]", "result": 1.5},
      {"measurement": "Initial IgG capacity Qb10", "setting": "[14]", "result": 60.3, "unit": "mg/mL"},
      {"measurement": "Remaining IgG capacity Qb10 after six 4 h cycles", "setting": "[15]", "result": 56, "unit": "mg/mL"},
      {"measurement": "Remaining IgG capacity after six 4 h cycles (%)", "setting": "[15]", "result": 93, "unit": "%"},
      {"measurement": "Capacity retention relative to ref. after six 4 h cycles", "setting": "[16]", "result": 1.67},
      {"measurement": "Initial IgG capacity Qb10", "setting": "[17]", "result": 49, "unit": "mg/mL"},
      {"measurement": "Remaining IgG capacity Qb10 after six 4 h cycles", "setting": "[18]", "result": 44.2, "unit": "mg/mL"},
      {"measurement": "Remaining IgG capacity after six 4 h cycles (%)", "setting": "[18]", "result": 90, "unit": "%"}
    ]},
    {"substance": "Zvar(Q9A, N11K, H18K, D37E, A42R)4 with an additional N-terminal cysteine (agarose bead ligand) (designed binder)", "values": [
      {"measurement": "Remaining IgG capacity Qb10 after six 4 h cycles", "setting": "[19]", "result": 52.5, "unit": "mg/mL"},
      {"measurement": "Remaining IgG capacity after six 4 h cycles (%)", "setting": "[19]", "result": 92, "unit": "%"},
      {"measurement": "Capacity retention relative to ref. after six 4 h cycles", "setting": "[20]", "result": 1.3},
      {"measurement": "Initial IgG capacity Qb10", "setting": "[21]", "result": 56.9, "unit": "mg/mL"}
    ]}
  ]
}
